Laboratory results reported in the supplement of paper PMC10724198.
± gives the standard deviation of the averaged measurements.

These sequences were tested on Saccharomyces cerevisiae (assay: protein stability index of tFT-peptide fusion (C-terminal peptide) (PSI (0-1 scale)); higher = more stable (slower turnover)). Details: genetic background: wild type; temperature: 30 C.
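Also: PSI is a weighted mean of sequencing reads over stability bins, variants kept only with over 10 reads, mCherry proximal and sfGFP distal, peptide attached via GGGS linker.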

| Sequence | protein stability index |
| --- | --- |
| TEVSAPAPPCLW | 0.6371 ± 0.0058 |
| TEYCSRHDTATK | 0.728 ± 0.0096 |
| TFRHLRPPLRSR | 0.649 ± 0.037 |
| TFSGWYIQGQIV | 0.702 ± 0.16 |
| TFSWISGKPRHT | 0.679 ± 0.041 |
| TGEVPPPRCEGE | 0.638 ± 0.014 |
| TGGRRKNCIIKK | 0.688 ± 0.062 |
| TGKIRWIPAIRS | 0.64 ± 0.039 |
| TGLYWGQIPYSQ | 0.687 ± 0.062 |
| TGPSLDRALLDL | 0.6412 ± 0.002 |
| TGRGSMSNVRVK | 0.706 ± 0.06 |
| TGTATGTEGANY | 0.698 ± 0.022 |
| TGTEKFTMQFKF | 0.673 ± 0.042 |
| TGTVYGGTRRGQ | 0.698 ± 0.075 |
| TGVCKGMRWRGV | 0.683 ± 0.045 |
| THCWQVLPCGLI | 0.723 ± 0.0089 |
| THRAGLGANKGL | 0.696 ± 0.029 |
| THSLRIRESNNT | 0.674 ± 0.014 |
| TKCSPLASRFSC | 0.707 ± 0.016 |
| TKKKKKKNKKQE | 0.683 ± 0.012 |
| TKNTQNNGKDKK | 0.734 ± 0.059 |
| TKQLKGEQERDG | 0.648 ± 0.031 |
| TKRRRKRRGAKK | 0.672 ± 0.014 |

| Sequence | protein stability index |
| --- | --- |
| TKVCWNVDYNVL | 0.697 ± 0.012 |
| TKWAISRLHNSA | 0.64 ± 0.012 |
| TKYIGDGCVCSC | 0.645 ± 0.018 |
| TLCTKCNVFSCC | 0.682 ± 0.062 |
| TLFVAWTDCMSY | 0.6591 ± 0.0061 |
| TLIEWSAKGCRR | 0.693 ± 0.047 |
| TLKGERHKKNKR | 0.623 ± 0.035 |
| TLRKTTRHRRNA | 0.737 ± 0.069 |
| TLSLPPLHPPPH | 0.699 ± 0.0063 |
| TLSPPPALASPL | 0.71 ± 0.037 |
| TLTTVLSPHSHR | 0.716 ± 0.0073 |
| TLVALGFIYASG | 0.572 ± 0.0048 |
| TLYKSEQIAFFL | 0.644 ± 0.047 |
| TMLIGTAQAVNN | 0.604 ± 0.026 |
| TNALVGEWVGLG | 0.795 ± 0.11 |
| TNANKKNGRGNT | 0.683 ± 0.041 |
| TNKRKNIRTKQR | 0.638 ± 0.037 |
| TPASAGLACILL | 0.672 ± 0.013 |
| TPGGRTLATALR | 0.676 ± 0.018 |
| TPHAPTATPRDN | 0.727 ± 0.076 |
| TPLAPASPPAAR | 0.717 ± 0.056 |
| TPLPPLPPHPPS | 0.727 ± 0.0087 |
| TPNLQPLPRNLD | 0.765 ± 0.037 |

| Sequence | protein stability index |
| --- | --- |
| TPPCACTPPRAP | 0.686 ± 0.081 |
| TPQSLRDAHGSC | 0.662 ± 0.056 |
| TPRASLSATSRS | 0.719 ± 0.016 |
| TPRTNATAMCTP | 0.72 ± 0.038 |
| TPSYSPPSRHDP | 0.634 ± 0.093 |
| TPTRRIIPHTHP | 0.685 ± 0.086 |
| TQARDTIPGAKV | 0.678 ± 0.02 |
| TQEKKGKIRGGI | 0.685 ± 0.0085 |
| TQSPANIIQRKT | 0.672 ± 0.024 |
| TQTLPPPLPPLL | 0.675 ± 0.02 |
| TQWRSRRHLKPQ | 0.72 ± 0.032 |
| TQYINTAHKELK | 0.6677 ± 0.00083 |
| TQYTDNQTPITK | 0.6673 ± 0.0027 |
| TRAKVQSRGSLS | 0.708 ± 0.039 |
| TRCKRNETCTSG | 0.669 ± 0.046 |
| TRECGRLRQAET | 0.723 ± 0.067 |
| TRHPGGERIPTY | 0.743 ± 0.12 |
| TRIRLQKNVITL | 0.683 ± 0.014 |
| TRLGWSWGFAHR | 0.719 ± 0.11 |
| TRREQYSSSNLV | 0.674 ± 0.04 |
| TRRKKKKNTGTK | 0.71 ± 0.022 |
| TRRLEFPEPPMS | 0.708 ± 0.061 |
| TRSGGNGYERVC | 0.667 ± 0.03 |

| Sequence | protein stability index |
| --- | --- |
| TSCFIWGCACCR | 0.656 ± 0.058 |
| TSEIGKEINYRK | 0.66 ± 0.017 |
| TSFLRSPPPPRL | 0.763 ± 0.012 |
| TSGRTLVNDKCT | 0.716 ± 0.012 |
| TSIFRIICLTDR | 0.642 ± 0.022 |
| TSKPGLQIPRRE | 0.747 ± 0.047 |
| TSKTLHKTNNIK | 0.698 ± 0.028 |
| TSPLSPAPPPPR | 0.641 ± 0.083 |
| TSPPPGTHTLQP | 0.626 ± 0.023 |
| TSQASIRDLTNK | 0.579 ± 0.016 |
| TTPHTSFTILHP | 0.696 ± 0.087 |
| TTPRAILPLSSI | 0.67 ± 0.043 |
| TTSRTRVAHPPI | 0.622 ± 0.071 |
| TVGSVAREGPFW | 0.696 ± 0.025 |
| TVLTDKKGRVRS | 0.71 ± 0.0093 |
| TVMSDCQTDQAS | 0.657 ± 0.065 |
| TVNHKHALQFAT | 0.681 ± 0.091 |
| TVRLAPCPLSDT | 0.744 ± 0.075 |
| TVVSFMFCPSLT | 0.667 ± 0.061 |
| TWGLGVFSIMDC | 0.633 ± 0.052 |
| TWPGRAGGRGAT | 0.721 ± 0.1 |
| TWRWVGGRWSGL | 0.5601 ± 0.0026 |
| TYATPSLVFPLL | 0.695 ± 0.011 |

| Sequence | protein stability index |
| --- | --- |
| TYPSWIYELNKT | 0.753 ± 0.077 |
| TYQVVPRDAPYV | 0.672 ± 0.025 |
| TYVSKCRLYEPA | 0.644 ± 0.011 |
| VAAFGGGRTNGV | 0.724 ± 0.024 |
| VAAQRYAQRLFT | 0.652 ± 0.021 |
| VACYVDWSQNHR | 0.728 ± 0.06 |
| VAGFVPSWVALW | 0.643 ± 0.1 |
| VALEFLGWVGLS | 0.684 ± 0.094 |
| VALHRIPVTVSR | 0.578 ± 0.026 |
| VALLKCTGTAQI | 0.61 ± 0.033 |
| VAPDSARVFHFV | 0.64 ± 0.025 |
| VARCWGGLGLAR | 0.692 ± 0.047 |
| VARPEWWSGGGS | 0.727 ± 0.03 |
| VARPMHFIRYGK | 0.716 ± 0.018 |
| VARRGLFLSISW | 0.596 ± 0.088 |
| VASFLRFRLPPQ | 0.71 ± 0.083 |
| VASPAPALRPPL | 0.746 ± 0.093 |
| VAVDGSDQGGTR | 0.64 ± 0.079 |
| VAVGHWGIVPLW | 0.725 ± 0.08 |
| VAVMPKPLGVVR | 0.552 ± 0.046 |
| VAVWGAIRHASN | 0.718 ± 0.033 |
| VCARAGRALEDS | 0.674 ± 0.08 |
| VCAVRVGGGGEG | 0.601 ± 0.04 |

| Sequence | protein stability index |
| --- | --- |
| VCFLFGLVGFGS | 0.597 ± 0.0085 |
| VCGGRLVGWGGW | 0.729 ± 0.1 |
| VCGSGGGCWGGG | 0.622 ± 0.0096 |
| VCICDRLASRDV | 0.733 ± 0.067 |
| VCNFQIGGDRGV | 0.71 ± 0.052 |
| VCRCWGGKGQDS | 0.71 ± 0.012 |
| VCRGRGGEGIGW | 0.721 ± 0.096 |
| VCRVGGVMAGDT | 0.669 ± 0.049 |
| VCSLTFFGLCRP | 0.69 ± 0.025 |
| VCSYISGRKSVL | 0.568 ± 0.0048 |
| VCVCSVPNLGLW | 0.675 ± 0.029 |
| VCVSCTPALLFL | 0.608 ± 0.056 |
| VDGRIYIGIISR | 0.677 ± 0.032 |
| VDSPFPTPLPLI | 0.685 ± 0.087 |
| VDWVEAYVCVGV | 0.538 ± 0.024 |
| VEASRSCTKLDG | 0.675 ± 0.02 |
| VEDRTTNVLNIT | 0.682 ± 0.027 |
| VEGFVPEDGKEE | 0.684 ± 0.024 |
| VELEPPVCVFLL | 0.6391 ± 0.0017 |
| VEQSYKESVNLD | 0.682 ± 0.017 |
| VESDREPIFGCA | 0.65467 ± 0.00014 |
| VEVRVRCVGGRV | 0.703 ± 0.068 |
| VFACDTRHWSFD | 0.796 ± 0.019 |

| Sequence | protein stability index |
| --- | --- |
| VFARKARGFDDV | 0.7188 ± 0.0065 |
| VFAVGRPGRGVV | 0.648 ± 0.014 |
| VFGPRSIARGAI | 0.727 ± 0.12 |
| VFHLFSAVSLRL | 0.592 ± 0.0084 |
| VFITSLWTPLLL | 0.617 ± 0.019 |
| VFLRGSVLGLCI | 0.606 ± 0.034 |
| VFLRSGCSGGGE | 0.799 ± 0.063 |
| VFLTASVLVAPF | 0.575 ± 0.015 |
| VFPPTPPTVPRG | 0.727 ± 0.0077 |
| VFPWRDSNLYAS | 0.713 ± 0.021 |
| VFRPFVLPLMFP | 0.611 ± 0.053 |
| VFSARVVGGVLF | 0.681 ± 0.011 |
| VFSTFGSCHICC | 0.636 ± 0.033 |
| VFVCFMSHLRGS | 0.58 ± 0.012 |
| VFVPCIFRQIAG | 0.6096 ± 0.0019 |
| VFYVGGGAVVRG | 0.689 ± 0.023 |
| VFYVGGGSVVRG | 0.663 ± 0.011 |
| VGAGRGKGRGGG | 0.617 ± 0.013 |
| VGASRFRLSNCF | 0.677 ± 0.02 |
| VGCLGGCGCGGV | 0.716 ± 0.07 |
| VGCQAIESRLHL | 0.737 ± 0.077 |
| VGCSGGRGAGVV | 0.649 ± 0.018 |
